Measured values reported in the supplement of paper PMC10598134.
± gives the standard deviation.

Assay: collision cross section of modified peptide (TIMS, N2, iRT-aligned); higher = larger / more extended gas-phase ion
Procedure, shortened: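 Synthetic peptide pools (~100 fmol/µL in 2% acetonitrile/0.1% formic acid, iRT standard spiked 1:40) were separated on a 120-min nanoflow C18 gradient at 60 °C. They were analysed on a timsTOF Pro/HT (dda-PASEF, nitrogen, ~2.4 mbar) and identified with MaxQuant. 1/K0 was calibrated with three reference ions and aligned run-wise to the median iRT peptide deviation. Collision cross section came from the Mason-Schamp equation, averaging 1–3 technical replicates of the most abundant feature per charge state.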

[1] = charge state: 2, modification: Methyl (R)
[2] = charge state: 3, modification: Methyl (R)
[3] = charge state: 2, modification: Hydroxyproline
[4] = charge state: 3, modification: Hydroxyproline
[5] = charge state: 2, modification: Nitro (Y)
[6] = charge state: 3, modification: Nitro (Y)
[7] = charge state: 2, modification: Phospho (Y)
[8] = charge state: 2, modification: Citrullination (R)
[9] = charge state: 3, modification: Citrullination (R)
[10] = charge state: 2, modification: HexNAc (ST)
[11] = charge state: 3, modification: HexNAc (ST)

GLATFPSRGAK [_GLATFPSR(Methyl (R))GAK_]
collision cross section [1]: 371.86 ± 0.78 Å² | collision cross section [2]: 447 ± 3.2 Å²

GLPGEKGER [_GLP(Hydroxyproline)GEKGER_]
collision cross section [3]: 345.98 ± 0.8 Å² | collision cross section [4]: 396.91 ± 2 Å²

GLPGEPGPR [_GLPGEP(Hydroxyproline)GPR_]
collision cross section [3]: 312.79 ± 1.3 Å²

GLPGEPGPRGLLGPK [_GLP(Hydroxyproline)GEPGPRGLLGPK_]
collision cross section [4]: 506.02 ± 0.37 Å²

GLPGEPGPRGLLGPK [_GLPGEP(Hydroxyproline)GPRGLLGPK_]
collision cross section [3]: 409.23 ± 0.28 Å²

GLPGLAGDHGEFGEK [_GLP(Hydroxyproline)GLAGDHGEFGEK_]
collision cross section [3]: 432.14 ± 0.34 Å² | collision cross section [4]: 497.67 ± 1.7 Å²

GLPGPPGPQGESR [_GLP(Hydroxyproline)GPPGPQGESR_]
collision cross section [3]: 363.77 ± 1.6 Å²

GLQGPPGK [_GLQGPP(Hydroxyproline)GK_]
collision cross section [3]: 294.56 ± 0.29 Å²

GNDISSGTVLSDYVGSGPPK [_GNDISSGTVLSDY(Nitro (Y))VGSGPPK_]
collision cross section [5]: 466.4 ± 0.42 Å²

GNDISSGTVLSDYVGSGPPKK [_GNDISSGTVLSDY(Nitro (Y))VGSGPPKK_]
collision cross section [6]: 549.52 Å²

GNPGVGTQGPR [_GNP(Hydroxyproline)GVGTQGPR_]
collision cross section [3]: 327.91 ± 0.79 Å²

GPKGQQGEPGPK [_GPKGQQGEP(Hydroxyproline)GPK_]
collision cross section [3]: 357.43 ± 1.4 Å² | collision cross section [4]: 444.16 ± 2 Å²

GPPGAKGNK [_GPP(Hydroxyproline)GAKGNK_]
collision cross section [3]: 311.98 ± 0.24 Å²

GPPGPAGPSGESR [_GPP(Hydroxyproline)GPAGPSGESR_]
collision cross section [3]: 344.62 ± 1.9 Å²

GPPGPPGK [_GPPGP(Hydroxyproline)PGK_]
collision cross section [3]: 274.06 ± 0.78 Å²

GPPGPPGR [_GPPGPP(Hydroxyproline)GR_]
collision cross section [3]: 291.03 ± 0.88 Å²

GPPGPPGRPGNSGIR [_GPPGPPGRP(Hydroxyproline)GNSGIR_]
collision cross section [4]: 429.49 ± 1.3 Å²

GPPPSYGGSSR [_GPPPSY(Phospho (Y))GGSSR_]
collision cross section [7]: 343.35 ± 0.65 Å²

GPPRGGPGGELPR [_GPPR(Citrullination (R))GGPGGELPR_]
collision cross section [8]: 368.26 ± 0.27 Å² | collision cross section [9]: 454.52 ± 3.7 Å²

GPPRGGPGGELPR [_GPPR(Methyl (R))GGPGGELPR_]
collision cross section [2]: 472.6 ± 2.6 Å²

GPQNATDSYVHK [_GPQNATDSY(Nitro (Y))VHK_]
collision cross section [5]: 386.3 ± 0.94 Å² | collision cross section [6]: 449.51 ± 0.23 Å²

GPQNATDSYVHK [_GPQNATDSY(Phospho (Y))VHK_]
collision cross section [7]: 396.29 ± 0.77 Å² | collision cross section (charge state: 3, modification: Phospho (Y)): 452.94 ± 1.8 Å²

GQDSTIAASEQQVAAR [_GQDS(HexNAc (ST))TIAASEQQVAAR_]
collision cross section [10]: 438.46 ± 0.56 Å² | collision cross section [11]: 532.78 ± 0.19 Å²

GQKGEPGLPGHPGK [_GQKGEPGLP(Hydroxyproline)GHPGK_]
collision cross section [3]: 379.44 ± 1.1 Å² | collision cross section [4]: 420.23 ± 0.34 Å²

GQQGEPGPK [_GQQGEP(Hydroxyproline)GPK_]
collision cross section [3]: 313.43 ± 0.56 Å²

GRGAAAAGGPQR [_GR(Citrullination (R))GAAAAGGPQR_]
collision cross section [8]: 334.88 ± 0.28 Å²

GRGAAAAGGPQR [_GR(Methyl (R))GAAAAGGPQR_]
collision cross section [1]: 338.98 ± 2.7 Å² | collision cross section [2]: 434.02 ± 3.5 Å²

GRGAANDSTQFTVAGR [_GR(Citrullination (R))GAANDSTQFTVAGR_]
collision cross section [8]: 411.84 ± 0.81 Å² | collision cross section [9]: 488.59 ± 0.56 Å²

GRGAANDSTQFTVAGR [_GR(Methyl (R))GAANDSTQFTVAGR_]
collision cross section [2]: 468.2 ± 2.7 Å²

GRGAPPPPPSR [_GR(Citrullination (R))GAPPPPPSR_]
collision cross section [8]: 339.21 ± 1.2 Å²

GRGAPPPPPSR [_GR(Methyl (R))GAPPPPPSR_]
collision cross section [1]: 339.22 Å² | collision cross section [2]: 437.5 Å²

GRGGAESHTFK [_GR(Citrullination (R))GGAESHTFK_]
collision cross section [8]: 374.44 ± 0.39 Å² | collision cross section [9]: 436.66 ± 2.2 Å²

GRGGAESHTFK [_GR(Methyl (R))GGAESHTFK_]
collision cross section [1]: 352.3 ± 2.4 Å² | collision cross section [2]: 441.34 ± 2.6 Å²

GRGGPGPAQR [_GR(Citrullination (R))GGPGPAQR_]
collision cross section [8]: 319.56 ± 0.91 Å²

GRGGPGPAQR [_GR(Methyl (R))GGPGPAQR_]
collision cross section [1]: 327.6 ± 3 Å² | collision cross section [2]: 431.84 ± 5.1 Å²

GRGLPGPAESLR [_GR(Citrullination (R))GLPGPAESLR_]
collision cross section [8]: 366.62 ± 0.53 Å²

GRGLPGPAESLR [_GR(Methyl (R))GLPGPAESLR_]
collision cross section [2]: 459.68 ± 1.5 Å²

GRGTGEAEEEYVGPR [_GR(Citrullination (R))GTGEAEEEYVGPR_]
collision cross section [8]: 411.48 ± 0.42 Å² | collision cross section [9]: 487 ± 5.6 Å²

GRGTGEAEEEYVGPR [_GR(Methyl (R))GTGEAEEEYVGPR_]
collision cross section [2]: 491.55 ± 1.6 Å²

GRGTSQLAEGATAK [_GR(Citrullination (R))GTSQLAEGATAK_]
collision cross section [8]: 396.62 ± 1 Å²

GRGTSQLAEGATAK [_GR(Methyl (R))GTSQLAEGATAK_]
collision cross section [1]: 391.78 ± 1.4 Å² | collision cross section [2]: 464.6 ± 2.7 Å²

GRGVGSPEPGPTAPYLGR [_GR(Citrullination (R))GVGSPEPGPTAPYLGR_]
collision cross section [8]: 422.7 ± 0.55 Å² | collision cross section [9]: 509.44 ± 39 Å²

GRGVGSPEPGPTAPYLGR [_GR(Methyl (R))GVGSPEPGPTAPYLGR_]
collision cross section [2]: 520.34 ± 0.91 Å²

GRGVGSPEPGPTAPYLGRR [_GR(Citrullination (R))GVGSPEPGPTAPYLGRR_]
collision cross section [9]: 497.66 ± 1.9 Å²

GRGYFEHR [_GR(Citrullination (R))GYFEHR_]
collision cross section [8]: 339.49 ± 1.6 Å² | collision cross section [9]: 411.67 ± 1.3 Å²

GRGYFEHR [_GR(Methyl (R))GYFEHR_]
collision cross section [1]: 342.05 Å² | collision cross section [2]: 410.57 ± 5.9 Å²

GSAPPGPVPEGSIR [_GS(HexNAc (ST))APPGPVPEGSIR_]
collision cross section [10]: 399.5 ± 0.63 Å²

GSELQNYFTK [_GSELQNY(Nitro (Y))FTK_]
collision cross section [5]: 363.07 ± 0.55 Å²

GSELQNYFTK [_GSELQNY(Phospho (Y))FTK_]
collision cross section [7]: 373.39 ± 0.68 Å²

GSGLGARGSSYGVTSTESYK [_GSGLGAR(Citrullination (R))GSSYGVTSTESYK_]
collision cross section [8]: 458.29 ± 0.18 Å² | collision cross section [9]: 548.1 Å²

GSGLGARGSSYGVTSTESYK [_GSGLGAR(Methyl (R))GSSYGVTSTESYK_]
collision cross section [2]: 519.94 ± 0.91 Å²

GSHGQTPSPGALPLGR [_GS(HexNAc (ST))HGQTPSPGALPLGR_]
collision cross section [11]: 494.18 ± 4.8 Å²

GSIGFPGFPGANGEKGGR [_GSIGFP(Hydroxyproline)GFPGANGEKGGR_]
collision cross section [4]: 489.41 ± 4 Å²

GSLEKGSPEDK [_GSLEK(Acetyl (K))GSPEDK_]
collision cross section (charge state: 2, modification: Acetyl (K)): 363.99 ± 0.16 Å²

GSLEKGSPEDK [_GSLEK(Biotin)GSPEDK_]
collision cross section (charge state: 2, modification: Biotin): 382.87 Å²

GSLEKGSPEDK [_GSLEK(Butyryl)GSPEDK_]
collision cross section (charge state: 2, modification: Butyryl): 371.66 ± 0.71 Å²

GSLEKGSPEDK [_GSLEK(Crotonyl)GSPEDK_]
collision cross section (charge state: 2, modification: Crotonyl): 371.77 ± 0.26 Å²
